The source of these data is patent US20140274800A1, “TRANSCRIPTION FACTOR DECOYS FOR THE TREATMENT AND PREVENTION OF INFECTIONS CAUSED BY BACTERIA INCLUDING CLOSTRIDIUM DIFFICILE” (PROCARTA BIOSYSTEMS LTD., priority 2013, published 2014).

“Also recorded” adds a separate entry of the source.

For data set [1] the following is noted: elevated salt, dilution, extended storage; cited from earlier work.
The conditions of data set [2]: cited from earlier work.
The subject of data set [3] is Toxins A and B (encoded by tcdAB) in C. difficile. Description: Premier ToxinA&B ELISA of toxin production. Type of data set: cell-based, Clostridium difficile. As to conditions: FIG. 5. As for the experimental part:
A commercially available ELISA kit (Enzyme-Linked Immunosorbent Assay), Premier™ ToxinA&B, was obtained from Meridian Bioscience Inc. All assays were performed following manufacturers instructions.
(§1) Conditions of cell growth were as described in Example 1, with care being taken to ensure that the experimental culture consisted of early-exponential vegetative cells that would enter stationary phase during the course of the experiment. Toxin production is developmentally controlled and only beings to occur as cells enter this phase.
The absorbance of the cells was used to assay an equal amount of biomaterial in each experiment using the described ELISA kit. […] This was set at 100% activity and all other samples were compared to this (FIG. 5). […] At 48 h, where maximal production is expected, only 22% of the untreated level of production was achieved. The maximum level of production for the treated cells was 32% at 72 h.

Data set [4] has as its system C. difficile. Description: Cell growth by Optical Density at 600 nm (Example 2). The class given is cell-based, Clostridium difficile. The settings on record: OD 600 nm; FIG. 4. As for the experimental part:
as §1
Optical Density was measured at 600 nm in a standard spectrophotometer quantified cell growth.

The test system of another data set is C. difficile Strain 630. Description: Bioassay to measure sporulation (spore and total cell CFU/ml). Type of data set: cell-based, Clostridium difficile. On the procedure: All procedures were performed under anaerobic conditions at room temperature unless otherwise stated. All media and agar plates used were placed in an anaerobic chamber at least 24 hours prior to use. A standard bioassay to measure sporulation was performed using untreated cells, those mixed with nanoparticles consisting of either the Spo0A TFD or empty nanoparticles (containing no TFDs), to determine the effect on C. difficile Strain 630 (a laboratory reference strain that has been sequenced).
An initial overnight culture was generated by mixing 100 μl of a glycerol stock of C. difficile (consisting of spore cells of frozen in 10% glycerol and stored at −20° C.) with 10 ml Robertson's Cooked Meat Medium (Robertson (1916) J. Path. Bacteria 20: 327-349). The following day, 10 ml BHIS media (Brain Heart Infusion media, (McFaddin J. F. (1985) Media for Isolation-Cultivation-Identification-Maintenance of medical Bacteria, Vol. I, Williams and Wilkins, Baltimore) supplemented with 0.1% L-cysteine) was inoculated with 1% of the culture grown in Robertson's (consisting mostly of spore cells). […] 100 μl of this culture was used to inoculate 10 ml of BHIS which was allowed to grow until it had reached an OD600 of approximately 0.3. At this stage the growth is due to germination of spores and consists mainly of exponentially growing vegetative cells. This culture was then used to inoculate the experimental cultures that were performed in triplicate in 10 ml cultures in BHIS incubated at 37° C. The three conditions used were: A) untreated cells; B) treated with 1% (v/v) empty nanoparticles to give a final concentration of 8 μg/ml compound 7—12; C) nanoparticles loaded with Spo0A TFD to give final concentrations of 8 μg/ml compound 7—12 and 0.4 μg/ml TFD.
Aliquots were withdrawn from the cultures at TO, 24, 48, 72 and 96 h and used to calculate the total cell density and spore cell density.
Calculation of Spore Cell Density To measure the number of Colony Forming Units per ml of culture (CFU/ml) of spore cells, a 0.5 ml aliquot was withdrawn and exposed to anaerobic conditions for 25 minutes at 60° C. This heat shock step efficiently kills the vegetative cells but not the spores. A serial dilution of the treated sample was prepared in PBS buffer (Phosphate Buffered Saline) over a range of 10^−1 to 10^−6. 10 μl of each dilution was spotted in duplication onto BHIS plates supplemented with 0.1% taurocholate (which enhances germination), the spots allowed to dry and the plates incubated for 24 h at 37° C. The number of colonies was then counted and the CFU/ml of original culture calculated.
To measure CFU/ml of total cells, meaning vegetative cells plus spore cells, a 0.5 ml aliquot was withdrawn and exposed to anaerobic conditions for 25 minutes at room temperature (to control for the time taken to heat shock the spore sample). The samples were then processed as described above.

Data set [5] relates to C. difficile. Description: Minimum Inhibitory Concentration (MIC) method. As to conditions: with reference to the compound 7—12 component; 24-well plates, 2 ml BHIS; 1 nM SigH TFD in the loaded nanoparticle; FIG. 7.
Procedure: Growth was determined by the Minimum Inhibitory Concentration (MIC) method (Wiegand (2008) Nature Protocols 3: 163-175). Essentially, the antibiotic is diluted to the point where it is ineffective and is no longer able to prevent growth, as judged by the media remaining clear. For C. difficile, these experiments were performed in duplicate in 24-well cell plates containing 2 ml BHIS media with various concentrations of empty nanoparticles or those loaded with the SigH TFD.
The test system of data set [6] is C. difficile. Description: Cell growth by Optical Density at 420 nm (Example 3). Type of data set: cell-based, Clostridium difficile. As to conditions: absorbance 420 nm, over the time course; FIG. 6. On the procedure: Optical Density was measured at 420 nm in a standard spectrophotometer quantified cell growth.

With `Nc1c2c([n+](CCCCCCCCCC[n+]3c4c(c(N)c5ccccc53)CCCC4)c3ccccc13)CCCC2.[Cl-].[Cl-]` [Compound 7, 10,10′-(decane-1,10-diyl)bis(9-amino-1,2,3,4-tetrahydroacridinium)dichloride], the “stability of complexes formed” value in data set [1] is on record as “forms more stable complexes”. Besides, the “in vitro toxicity relative to dequalinium” value in data set [2] is recorded as “lower toxicity in vitro compared to dequalinium; also recorded: less in vitro toxicity than dequalinium”.

B1: TcdR TFD: dumbbell TFD from TcdRDB1/TcdRDB2 with TcdR recognition site, delivered in compound 7—12 nanoparticles (nucleic acid)
chain 1: CTTGGTTTTTCCAAGAAGTTTACAAAATTATATTAGAATAACTTTTTATT
chain 2: CCCTCTTTTTGAGGGAATAAAAAGTTATTCTAATATAATTTTGTAAACTT
modifications: dumbbell, delivered in nanoparticles, chemistry not fully specified
notes: dumbbell TFD from TcdRDB1/TcdRDB2 with TcdR recognition site, delivered in compound 7—12 nanoparticles
Consider B1, for which the “toxin production, % of untreated level” value in data set [3] (at 48 h, untreated cells at 48 h set at 100%) was 22%. Moreover, the “maximum level of toxin production, % of untreated 48 h level” value in data set [3] (at 72 h, untreated cells at 48 h set at 100%) is recorded as 32%. Further, the “pattern of Toxins production (in words)” value in data set [3] (time course) is on record as “produces much less of the Toxins”. Also, the “cell growth (growth curves, in words)” value in the data set on C. difficile [4] is recorded as “failed to grow in a manner similar to untreated cells”.

B2: SigH TFD: dumbbell TFD from SigH DB1/DB2 with binding sites for both Spo0A and SigH, delivered in compound 7—12 nanoparticles (nucleic acid)
chain 1: CTTGGTTTTTCCAAGTAATACGACAAACTAGTTAAATTTCATTGAAGGAATAAAAATATAATTATAGAATTGATTA
chain 2: GCCTCTTTTTGAGGCTAATCAATTCTATAATTATATTTTTATTCCTTCAATGAAATTTAACTAGTTTGTCGTATTA
modifications: dumbbell decoy delivered in nanoparticles, further chemistry not given here
For the molecule B2, the “effect on sporulation (in words)” value in the data set with C. difficile Strain 630 (time course similar to Example 1, FIG. 8) is given as “block sporulation significantly”. In addition, the MIC against C. difficile [5] came to 3.4 nM.

B3: FapR TFD: dumbbell TFD from FapRDB1/FapRDB2 with FapR recognition site, delivered in compound 7—12 nanoparticles (nucleic acid)
chain 1: CTTGGTTTTTCCAAGTAGAATTAGTACCTGATACTAATAATT
chain 2: GCCTCTTTTTGAGGCAATTATTAGTATCAGGTACTAATTCTA
modifications: nanoparticle delivery, chemistry not fully specified
notes: dumbbell TFD from FapRDB1/FapRDB2 with FapR recognition site, delivered in compound 7—12 nanoparticles
For the molecule B3, the “cell growth (growth curves, in words)” value in the data set with C. difficile [6] is reported as “failed to grow over the time course of the experiment”.

B4: Spo0A TFD: dumbbell TFD from Spo0ADB1/Spo0ADB2 with Spo0A binding site, delivered in compound 7—12 nanoparticles (nucleic acid)
chain 1: CTTGGTTTTTCCAAGAGCTTGTGTAGAAGGTTGTCCACAAGTTGTGAAATTTGTCGAAAAGCTATTTATC
chain 2: CCCTCTTTTTGAGGGGATAAATAGCTTTTCGACAAATTTCACAACTTGTGGACAACCTTCTACACAAGCT
modifications: dumbbell decoy delivered in nanoparticles, further chemistry not given here
For the molecule B4, the density of spores in the data set on C. difficile Strain 630 (after heat shock 25 minutes at 60° C., 8 μg/ml compound 7—12 and 0.4 μg/ml TFD, FIG. 3) is reported as 1.54×10^2 CFU/ml. In addition, the “effect on sporulation (in words)” value with C. difficile Strain 630 (delivery to cells with nanoparticles, Example 1) is “strong inhibition of sporulation”. In the data set on C. difficile Strain 630 (treated samples, FIG. 3), the “spores as percentage of total cells” value was < 8.66×10^−5%. In addition, the “reduction of sporulation relative to untreated culture” value in the data set with C. difficile Strain 630 (treated versus untreated, FIG. 3) is “six-fold”. Also, the “density of total cells” value in the data set on C. difficile Strain 630 (vegetative cells plus spore cells, nanoparticles giving 8 μg/ml compound 7—12 and 0.4 μg/ml TFD, BHIS, 37° C., FIG. 3) is reported as 1.78×10^8 CFU/ml.
